The values that follow come from the Immune Epitope Database (IEDB).

The target of one experiment is HLA-A*02:01. Put plainly: IEDB peptide-MHC binding, purified MHC/competitive/radioactivity; filed as Kd, often an IC50 or EC50 that approximates it; ≥ and ≤ were set here for values at or beyond the usual limits of such assays.
A further experiment has as its target HLA-A*11:01. The description is as above.
The mark [1] stands for this setting: source organism: Mammarenavirus choriomeningitidis.
Setting [2] is: source organism: Mammarenavirus brazilense.

In the case of AQPGLLSYV, in the experiment with HLA-A*02:01 (source organism: Mammarenavirus guanaritoense), the dissociation constant Kd worked out at 161 nM.
On to FTNDSIISH, for which the Kd in the experiment with HLA-A*11:01 (setting [1]) was found to be 38 nM.
On to GLSQFTQTV, for which the Kd with HLA-A*02:01 (source organism: Mammarenavirus juninense) was determined as 30 nM.
Consider KCLNIMLGK, for which the dissociation constant Kd with HLA-A*11:01 (setting [2]) was determined as 678 nM.
Take LVSFLLLAGR: the Kd with HLA-A*11:01 (setting [1]) turned out to be 70 nM.
As to LVTFLLLCGR, the Kd in the experiment with HLA-A*11:01 (source organism: Mammarenavirus lassaense) is no less than 5000 nM.
As to SIQKNTIFK, in the experiment with HLA-A*11:01 (source organism: Mammarenavirus machupoense), the Kd came out at 5.5 nM.
For SSIIRSLPK, the Kd with HLA-A*11:01 (source organism: Mammarenavirus whitewaterense) was determined as 2.5 nM.
For SSQRDTILK, the Kd with HLA-A*11:01 (setting [2]) was 9.3 nM.
Same read-out and setting: to STYYVHENK belongs 6 nM.
With TTYLGPLSCK, the Kd with HLA-A*11:01 (setting [1]) was 2.8 nM.

As usually defined, the Kd is a measure of binding affinity in units of concentration.
